Data on three molecules can be found in PMC11585782, “The Plastidial Protein Acetyltransferase GNAT1 Forms a Complex With GNAT2, yet Their Interaction Is Dispensable for State Transitions” (Molecular & Cellular Proteomics : MCP, 2024).

Substrate in the data set “purified protein”: CC(=O)SCCNC(=O)CCNC(=O)[C@H](O)C(C)(C)COP(=O)(O)OP(=O)(O)OC[C@H]1O[C@@H](n2cnc3c(N)ncnc32)[C@H](O)[C@@H]1OP(=O)(O)O
Put plainly: purified protein. It counts as biochemical, Arabidopsis thaliana. To be noted: acetyl-CoA 0-500 µM, 150 mM K-phosphate pH 8.0, 50 mM NaCl, 30 °C.

In data set [1] the target is His6-GNAT2 (Arabidopsis thaliana) (UniProt Q7X9V3).
Data set [2] has the same target. This is another data set of the same source.
[3] abbreviates: co-substrate Nα-Val peptide V-A-Q-G-A-K(ac)-A-A-K(Dnp)-Ahx-r-r-r 100 µM.
[4] abbreviates: co-substrate Nα-Ala peptide A-A-Q-G-A-K(ac)-A-A-K(Dnp)-Ahx-r-r-r 100 µM.

B1: His6-GNAT2 (Arabidopsis thaliana) (protein)
chain: SGFVKNNNSTQLVEPPSIVNDEEEETEPLLPVEFTLVERNLEDGLVEEIIFSSGGEIDVYDLQGLCDKVGWPRRPLVKLAAALKNSYMVATLHSVMKSSSDSDSSEGGDGEKQQEKKLIGMARATSDHAFNATIWDVLVDPEYQGQGLGKALVEKLVRALLQRDIGNISLFADSQVVDFYQNLGFEADPEGIKGMFWYPK
notes: expressed in E. coli, purified
Turning to B1, in the data set “purified protein” (setting [3]), the Michaelis constant (Km) turned out to be 23.44 ± 0.32 µM and the kcat was 0.02335 ± 5e-05 s⁻¹.

B2: His6-GNAT1 (enzyme)
chain: AAMQRKPPSYSISDEDLESRGFLLRRTTEGLNLDQLNSVFAAVGFPRRDTAKIEVALQHTDALLWVEYEKTRRPVAFARATGDGVFNAIIWDVVVDPSFQSCGLGKAVMERLIEDLQVKGICNIALYSEPRVLGFYRPLGFVSDPDGIKGMVFIRKQRNKK
For the molecule B2, in data set [1], the acetylation of the Nα-Met peptide by His6-GNAT1 + His6-GNAT2 (1 + 1 μM), effective activity as percent of the hypothetical sum of the single activities worked out at 55%; the acetylation of the Nα-Thr peptide by His6-GNAT1 + His6-GNAT2 (1 + 1 μM), effective activity as percent of the hypothetical sum of the single activities was determined as 73%; the acetylation of the Nα-Val peptide by His6-GNAT1 + His6-GNAT2 (1 + 1 μM), effective activity as percent of the hypothetical sum of the single activities is 76%; the acetylation rate of the Nα-Ala peptide by His6-GNAT1 + His6-GNAT2 (1 + 1 μM), against around 450 nmol ∙ min^-1 expected for additive activity amounted to 250 nmol/min. The lysine acetylation of the Nε-Lys peptide by His6-GNAT1 + His6-GNAT2 (1 + 1 μM), effective activity as percent of the hypothetical sum of the single activities in data set [1] stood at 93%. Also, the acetylation of the Nα-Ala peptide in the presence of both GNATs, turnover as percent of the hypothetical sum of both individual activities in data set [2] came to 53%.

B3: His6-GNAT1 (Arabidopsis thaliana) (protein)
chain: B2 chain
notes: N-terminal His6 (pQE-30), predicted plastid transit peptide (36 N-terminal residues) removed; expressed in E. coli SoluBL21, Ni-NTA
For B3, in “purified protein” (setting [4]), the Km is 137.6 ± 9.8 µM and the kcat is 0.00858 ± 0.00025 s⁻¹.

The Km is the substrate concentration at which the rate is half of its maximum. One may read the kcat as the number of substrate molecules converted per active site and unit of time at saturation.
